A protein production outcome set (Wang et al. 2014)

Assay: label from the status in PepcDB records
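Further: failed if final PepcDB status was selected cloned or expressed and not failed if soluble or beyond.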

Row | Sequence | protein production
1 | MEIILLIIAAVVLFYFYNTLKEYLKNPLNPKTKTEEYDLKNDPYLLAQSSPLDKFKQTQTGAYMRLLKFLDIQKNALDNALRTLFIHELEQPLNSEQQNLAKELLNEPVDKKENFESLCQEIADHTHGEYTKRLKLVEFLMLLAYADGILDSKEKELFLDVGVFLQIDNQDFNELYDNFERFNAIEIPMSLEEAKSLFEIQTHTTKQDLEKKALDLSAPYYHKMNDNKRYSEQDFISLKKIAIASQLLENDLKDS | failed
2 | LKVLTNKASVMLFMKGNKQEAKCGFSKQILEILNSTGVEYETFDILEDEEVRQGLKTFSNWPTYPQLYVRGDLVGGLDIVKELKDNGELLPILKGE | not failed
3 | MRSRDFSSWIWGDALSLLQQADRLHRQLLRTGPAQAPCWEPPVDMIETESAVLIYVALPGVAAGDVAVRFDPDGISISGVRPLPALRNARIHGLEIPYGRFQRRIRLPLHALEPEAPTLADGCLTLTLKKLREAP | failed
4 | SGRLFVRNLSYTSSEEDLEKLFSAYGPLSELHYPIDSLTKKPKGFAFVTFMFPEHAVKAYAEVDGQVFQGRMLHVLPSTIKKEASQ | not failed
5 | MTVEEAIALVEQLLSGTRLTKVQEIVFRQCWAGQTYSDIALESDYDLGYIKDVGSELWRSLSQALGEKVTKKNLYTVLKRAAKQNSINPSSSLQLPSLANYTDWGEAIDVSQFYGRTHDLATLSRWVLQDNCRVVSLLGMGGIGKTALSVKLAQQLQGQFEYVIWRSLRHAPSFSDKLTECIKILSNQQVTTLPASSHEQITYLIEYLRKSRCLLILDNFDTLLQDGKRAGSYRQGYEPYGELLWRLGETQHQSCVLITSREKPAQIAALEGDGLPVRTLALSGLEVAAGQTILTLKGLSGSEDQTRQLVECYGGNPLALKIAATSIRDLHEGSIANFLSEGTTVFQGIGHLLEDQFQRLSTLEQQLMYWLAINREKVSSTKLQTAFTSPLSKPKLIETLESLRWRSLIESNTGQFTQQPVVMEYVTDSLVEQVCQEIITESPQYLLTHALMQVQAKDYIRDSQINLIVCPILKQLQITLGSVHQLDLKLGRLIRKLQSKVIETVGYGGGNLLNLLAQLDTDLTGYDFSGLDMRECDLRTVNLHAVNFTQTTFRDCVFAATFGGITSVAFSRDGCQLATSDTSGVINIWDVNNGKQLFNCQEHNSWIWDVAFSSVAPVLASCGQDHTIKLWNTTTGECFNTLHGHTSIVTSVAFSPEGKLLASSSYDHSVKVWDLDTGECLQTFLGHDACVWSVVFHPVGQILATAGEDNTIKLWELQSGCCLKTLQGHQHWVKTIAFNSGGRILASGSFDQNVKLWDIHTGKCVMTLQGHTGVVTSVAFNPKDNLLLSGSYDQSVKVWDRKTGRCLDTLKKHTNRIWSVAFHPQGHLFVSGGDDHAAKIWELGTGQCIKTFQGHSNATYTIAHNWEHSLLASGHEDQTIKLWDLNLHSPHKSNVNTHPFRILQGHSNRVFSVVFSSTGQLLASGSADRTIKLWSPHTGQCLHTLHGHGSWVWAIAFSLDDKLLASGSYDHTVKIWDVSSGQCLQTLQGHPGSVLAVAFSCDGKTLFSSGYEKLVKQWDVETGYCLQTWEADSNRVWAVAVSRDNQYLATGGDDSVVRLWDIGKGVCVRTFSGHTSQVICILFTKDGRRMISSSSDRTIKIWNVSTGECLATLQAHDHWVWSLYLTPDEKTLLSSSWDETIKCWNISTGECWQTLRPARPYEGMIINEVVGLSQAQIATLKALGALEVN | failed
6 | MTIPTSYLNHTDAEAARKARATYRDGLVAPTSGIAPGFTQANMIVLPRDWAFDFLLYAQRNPKPCPVLDVSDPGSPTTLLAPGADLRTDLPLYRIWRDGKLAEETADATSAWAERDDLVAFLIGCSFTFETPMVEAGIEIRHMTDKSNVPMYLTNRPCRPAGRLKGNMVVSMRPIPASRVADAATISGRFPAVHGAPVHVGAPEQIGISDLSKPDFGDAVRIEPGEVPVFWACGVTPQAAVMASGVPFAITHAPGHMFITDIPDTAYHALEHHHHHH | not failed
7 | MNRFSRARSYISLVLFRKSSYVTSHIPWNQCFYTSLKSSLKPASVSVSSVHCYSSRSKTAKSKMSKSSVSVSDSDKEKDAFFVVRKGDIVGIYKDLIDCQAQVGSSVYDPPVSVYKGYSLLKDTEECLSTVGLKKPLYVFRALDLKEDMFGALTPCLFQDQLPSASMSVEKLAELEPSADTSYETCIIEFDGASKGNPGLSGAAAVLKTEDGSLIFKMRQGLGIATNNAAEYHGLILGLKHAIEKGYTKIKVKTDSKLVCMQMKGQWKVNHEVLSKLHKEAKQLSDKCLSFEISHVLRSLNSDADEQANMAARLSEGEVEVA | failed
8 | ADGILVVDLKGNIEFCNQQFLKMWGIAPGFIDSHNDTETIQYVLNQLKNPEEFLKQIKELYNNPKQESFDELHFKDGKIFERYSQPHWLDN | failed
9 | MTDTSTADVDLVGEEMALNVARTALFAALMGAFAYVSFPYPLSPAPVTLQVLGVFLAGLLLGPLWGGAAMVVYLLAGVLGAPVFSAGEAGIGVILGPQGGYLLSYPFAAAIVGGIVHRGTDIKPLETVSAALMIAAMILSTVVIYAFGIPFMWWNLEMTLLNAVIAGGVVFIPAEAAKMAAAIGIVRSDAIRAE | failed
10 | MSNGGSFTVEKLSLYGNPNIGVYLTASDSYVLAPDDIGADDVRTISEVLGVAMERVVRLRVLGMRLVGVLTTGNSRGILLPEGVDREVELVRKALEGVEVGIVPTRSNALGNVIVCNDRACLASPGLEKEALKTVSDTLGVEVVEGSVAGVYTVGSAIVVTNRGGLAHPDASEEELKFLSDVFKVPFEAGTINFGVEFVRTGLVANSYGALVGEDTTGPEIARIQVALGGGVK | failed
11 | WRKDIVLPKDQAKGVRPYNPKFKDSEYFSRYNALINDERLIEFAKKNNYKITFFPHPDIQQQIVDFEKHDYVEFADYNSSYQMLFNSSNIMITDFSSVAFDFAYEKKPVIYYQYEKSYHFKLDYYDYKKMGFGDVLENHNSLVDKVIYYMKNNSRMEDKYRKRVDNFFAYTDKNNRNRIYNAILE | not failed
12 | MALASSEALVNLVEYARWNQCGVSGGPGTKEFSAEGTEAAKGGRRKAAGGRAGRGGAGRERGGTRDPAMGPGARLALLALLALGGDPAAATGREDTFSALTSVARALAPERRLLGTLRRYLRGEEARLRDLTRFYDKVLSLHEDLKIPVVNPLLAFTLIKRLQSDWRNVVHSLEATENIRALKDGYEKVEQDLPAFEDLEGAARALMRLQDVYMLNVKGLARGVFQRVTGSSITDLYSPRQLFSLTADDCFQVGKVAYDTGDYYHAIPWLEEAVSLFRRAHGEWKTEDEASLEDALDYLAFACFQVGNVSCALSLSREFLVYSPDNKRMARNVLKYERLLAENGHQMAAETAIQRPNVPHLQTRDTYEGLCQTLGSQPTHYQIPSLYCSYETNSSPYLLLQPARKEVVHLRPLIALYHDFVSDEEAQKIRELAEPWLQRSVVASGEKQLQVEYRISKSAWLKDTVDPMLVTLDHRIAALTGLDIQPPYAEYLQVVNYGIGGHYEPHFDHATSPSSPLYRMKSGNRVATFMIYLSSVEAGGATAFIYGNFSVPVVKLSSVEAGGATAFIYGNFSVPVVKLHVFTVPMDGGPWCTCGHWVANKWIHEYGQEFRRPCSTNPED | failed
13 | REVPRCLADLGNGSVHGYRAGRVLSDSGPTGRVGEELMRSFASFFVRTASVPVAELPARPEGWPRDGDTQGFLDWLVHFTERRVHRPNRDRFGALFDAVGVPEDAMARFAAGHRCRAVRPFRLLHTDVHRANVVVRGRRLAVIDWELAILGDPLHDLATHLVRMAYGKEEQGRMVDLWAEAMADAGFTDLTAGLHEDLPVYVAFEYAQSVFPDVMRAAIDLPQ | failed
14 | VDEKALKHITEMGFSKEASRQALMDNGNNLEAALNVLLTSNKQKPVMGPP | not failed
15 | MRSVTVSGFLTLIISGIMLIPSPAYSKIDTTLNTSSFIGAYLAGRVANHENKTDLAIKYFKKALTYKPENIETQVEMLEAMLFSGAFKEAVKQAQKLKKQGITNPFVSLTLSIESLIKKDYNKAKILLQLKTLPAANNPIPELIGAWATFGSGYQSQAITHLQKIQGPAWYKLFINYHLALMCDLAGHKQNAQKYFTQALNTQQATLIAPNTYEHIIIAYASFQLRSKMRIQALQTLKHGEQMLPGREIFKNIREKIEKGASLERLIKTPQQGTGEVLYNFGTTLNHKNSQRIARIFTQLSLILSPENDAIMFHLANISAKVNDLNQAIKLYRSLPQSSPYYRVGQLQLAFILANNNNHSEAIKLLTSLKKKNPNDRHILITLSALYMQDNKFTEATKTLDRAIAQITNFQQDDWKLFYQRGIAFERLQQWSKAENDLRKALDFFPNQPQVLNYLGYSLVERGEKLEESLHMLQKASTLQPQNSHILDSLGWAYYKLKQYNQAVQILGNAVRLQPEDPTLNDHLGDVYWRVGRKREAMFQWNHAIDGEAKNSKEIQEKLKFGLQ | failed
16 | MEERNEQVVEEVKEEVKEAQVEEAVTSEDSEESVEEKSEAALLQEKVDELQAKLTETEGRMLRLQADFENYKRRVQMDKQAAEKYRAQSLVSDILPALDNFERAMQVEANDEQMKSLLQGMEMVYRQLLEAMTKEGVEAIEAVGKQFDPHEHQAVMQVEDSEFESNAVVEEFQKGYKLKDRVIRPSMVKVNQ | failed
17 | MSIIIPAYNEEENIKRAIKAALSQDYPVSEVIVVDDGSEDGTYERAKEIKDHRLKVLKIDHRGKAGAINEGLKIAKGSVIVTTDADSFMSKDAVRRLVERFYSDDVVAVGGQIRVIVESFMTLVQDIEHLRIAMYRRGKELENLSLAPGPLSAFRRDVLEKIGGIQRSIVEDYATTKIVKKYGRVVYAPKAKLYTRMPITLRDLWRQRKRWFLGDLQHHNLNDLLNLLLGDVIALLDVILPFIFLLEGSYLPLLAFVMFEVITMVIAVIWEGGSLIEALLFPVVLWFLALFYLSLHLYGYAVYGLKSLLRFTRS | failed
18 | MMCGGRGTRLDAAAEKPLFEVGGRAMVDHVRAALEAAGRIDTTHAAVSPHAPDTAAHLAATPLSLIETPGDGYVADLTAALDAVGTPVLTVAADLPLLAPAVVDTVVAAADGATTSACVPRALKHELGVSTDADADAWVPTGVNVVGGGDTEATHRSFDARLAVNVNHRSDAAVAARLLAATDRRNHPRLEHHHHHH | failed
19 | MSNKIVTLEINLEPSDNRRLASLCGPFDDNIKHLERRLGVEINHRSDHFTIVGKPHTSAAALDILKTLYVDTAPVRGEIPDIEPEQIHLAIKESGVLEQNTESSIAHGKEVFVKTKKGVIKPRTPNQAQYLVNMVTHDISFGIGPAGTGKTYLAVAAAVDALERQEIRRILLTRPAVEAGEKLGFLPGDLSQKVDPYLRPLYDALFEMLGFERVEKLIERNVIEVAPLAYMRGRTLNDAFIILDESQNTTVEQMKMFLTRIGFNSRAVITGDVTQIDLPRGAKSGLRHAIEVLSEVDDISFNFFQADDVVRHPVVARIVNAYEKWEAQDQKERKEFEKRRREERDAKLLEAAKAELSAQVAATKE | not failed
20 | FKAVTYVADPVDVTYQSLNVSVPVEIDGKAVDASHAPIVFSNAVGGYMPSSTAGNTGIGQGVNAKLSLASGFVVVDPGARGRTLVDTAGVYYGVAPAAIVDLKAAIRYLRHNKGRVPGDTDRIVATGVSAGGALTSLLGASGDSDRYAPYLQELGAADASDAVFAAAPYCPITDLEHADMAYEWNWGTNPLPTGAQVDQTLSKELRSGFAEYQASLNLRGKNGFGRITARNYDAYMVKTHLEPSATRYLGALPDADRAAYLTANPWITWSGGRASFGWGDFLTHVGARKKNVPSFDTFTLAAPENNLFGVATTKARHFTQWSLRKATGDDGARLDADLPEKIDLMNPMYFIEHQNPGRSRHWFIRVGTKDSDTSLTVVGNLTAGLENLGDDVDTYMYWDGGHGANQDAPDFITWIRSVSG | failed
